Data: the nanobody polyreactivity screen of Harvey et al. (2022)

Experiment: yeast display, Sf9 membrane polyspecificity reagent, FACS + sequencing; frameworks hold sequencing errors
Procedure, shortened: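 Galactose induction of a Saccharomyces cerevisiae BJ5465 synthetic nanobody display library ran 36–48 hours. The cells were then stained for 1 hour at 4 °C with 10% biotinylated, detergent-solubilized Sf9 membrane reagent, pulled down on streptavidin microbeads and FACS-sorted into low and high (top ~1%) gates on expression and reagent-binding fluorescence. Labels for polyreactivity follow the gate of origin.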

Sequence	polyreactivity (PSR sort gate)
QVQLVESGGGLVQAGGSLRLSCAASGITFDYYAMGWYRQAPGKERELVAAISWGGGSTYYADSVKGRFTISRDNAKNTVYLQMNSLKPEDTAVYYCAADIVSSPSSYVPPGDYWGQGSQVTVSS	low polyreactivity
QLQLVESGGGLVQAGGSLRLSCAASGLIFTTNAMGWYRQAPGKEREFVAAISPSGGSTYYADSVKGRFTISRDNAKNTVYLQMKSLKPEDTAVYYCAKRPYVGYDWGQGTQVTVSS	high polyreactivity
QVQLVESGGGLVQAGGSLRLSCPASGSIFDRYAMGWYRQAPGKERELVAAISWSDSRTYYADSVKGRFTISRDNAKNTVYFQMNSLKPEDTAVYYCAADGSTWGDYRTYGYWGQGTQVTVSS	low polyreactivity
QVQLVESGGGLVQAGGSLRLSCAASGSILPRYAMGWYRQAPGKERELVAAITSGGITSYADSVKGRFTISRDNAKNTVYLQMNSLKPEDTAVYYCAADWYVIYDYWGQGTQVTVSS	low polyreactivity
QVQLVESGGGLVQAGGSLRLICAASGSTFIVYAMGWSRQAPGKEREFVAAISSGDSTKYADSVKGRFTISRDNAKNTVYLQMNSLKPEDTAVYYCAKYGQRSIHSPSLVGYYYWGQGTQVTVSS	low polyreactivity
QVQLVESGGGLVQAGGSLRLSCAASGSIFYYYAMGWYRQAPGKERELVAAINGGDTYYADSVKGRFTISRDNAKNTVYLQMNSLKPEDTAVYYCAAEGVTVEWDYDYWGQGTQVTVSS	low polyreactivity
QVQLVESGGGLVQAGGSLRLTCAASGRIFSANAMGWYRKAPGKERELVATISTGGGRTYYADSVKGRFTISRDYAKNTVYLQMNSLKAEDTAVYYCNDTGNYARFLYYSWCQGTQVTVSS	high polyreactivity
QVQLVESGGGLVQAGGSLRLSCAASGRTIRSYAMGWYRQAPGKERELVAAITGSGGRTYYADSVKGRFTISRDNAKNTVYLQLNSLKPEDTAVYYCAARLRGSYDYWGQGTQVTVSS	high polyreactivity
QVQLVESGGGLVQAGGSLRLSCAASGSTFYTYAMGWSRPAPGKERELVAAINWIGDSTYYADSVKGRFTISRDNAKNTVYLQMNSLKPEDTAVYYCAADFTLGSRTEGLHMDYWGQGTQVTVSS	high polyreactivity
QVQLVESGGGLVQAGGSLRLSCAASGITFGIYVMGCYRQAPGKEREFVATMSRSDDNTYYADSVKGRFTISRDNAKNTVYLQRNSLKPEDTAVYYCAADGVISAWYSSRDDYWGQGTQVTVSS	low polyreactivity
QVQLVESGGGLVQAGSSLRISCAASGRTLIYYAMGWYRQAPGKEREMVASINRRGDSTYYADSVKGRFTISRYNAKNTVYLQMYSLKPEDTAVYYCAKVLYGGYPENRYFVGWGREYLGQGTQVTVSS	high polyreactivity
QVQLVESGGCLVQAGGRLRLSCAASGRIFYRYSMGWYRQAPGKERELVAAINDVGSTYYADSVKGRFTISRDNAKNTVYLQMNILKPEDTAVYYCNGVNEHQSDFVVPFDYNHWGQGTQVTVSS	low polyreactivity
QVQLVESGGGLVQAGGSLRLSCAASGSTLKSNVMGWYRQAPGKERELVAAISSSGGSTSYADSVKGRFTISRDNAKNTVYLLMKSLNPEDTAVYYCAARMGRYFWNSGVDYWGQGTQVTVSS	high polyreactivity
QVQLVESGGGLGQAGGSLRLSCAASGSNFRPYAMGWYRPAPGKERELVAAISSSGGSTYYADSVKGRFTISRDNAKNTVYLQMNSLKPEDTAVYYCAAVSRSTWIHSRDYWGQGTQVTVSS	low polyreactivity
QVQLVESGGGLVQAGGSLRLSCAASVITVRSYAMGWYRQAPGKERELVARISTDADTYYADSVKGRFTISRDNAKITVYLHMNSLKPEDTAVYYCAAEDYWDFDYWGQGTQVTVSS	low polyreactivity
QVQLVESGGGIVQAGGRLRLSCAASGSIFYYYAKGWYRQAPGTERELVASINSGVSTYYADSVKGRFTNSRDNAKNTVYLQMNSLKPVDTAVYYCAAPGHNLYGSWFSWTPDTYDYWGQGNQVTVSS	low polyreactivity
QVQLVESGGGLVQAGGSLRLSCAASGFIFYSYAMGWNRQAPGKERELVADISRSGSTNYADSVKGRFTISRDNAKNTVYLQMNSLKPEDTAVYYCNKGYHSWSRLSQFGWSYDYWGQGTQVTVSS	high polyreactivity
QVQLVESGGGLVQAGGSLRLSCAASGNTFRSYVMGWYRPAPGKARELVADISSGDGTNYADSVKGRFTISRDTAKNTVYLQMNSLKPEDTAVYYCAKDVYNFRSTHSYFTGYVSWGQGTQVTVSW	low polyreactivity
QVQLVESGGGLVQAGGSLRLSCAASGGTFYKYAMGWYRQAPGKERELVAAISRSGGSTYYADSVKGRFTISRDNAKNTVYLQMNSLKPEDTAVYYCNAYGSYWDFDYWGQGTQVTVSS	high polyreactivity
QVQLEESGAGLVQAGGSLRLCCAASGFTIGYNVMGWYRQAPGKERELVATISWNGARTYYADSVKGRFTISRDNAKNTVYLQMNSLKPEDTAVYYCAARRYYRGEYDYWGQGTKVTVSS	low polyreactivity
QVQLVDSGGGLVQAGGSLRLSCAASGLTFQWYTMGWYRPAPGKERELVAAISSRGGSTYYADSVKGRFTISRDNAKNTVYLQMNSLKPEDTAVYYCAAVSGWEHRYDYWGQGTLVTVSS	high polyreactivity
QVQLVETGGGLVQAGGSLRLSCAASGFTFYNNAMGWYGQAPGKERELGAVITSNGGRTYYADSVKGRFTISRDNAKNTVYLQMNSLKPEDTAVYYCAKDYKAMYLYHYRISGGDVDYWGQGTQVTVSS	low polyreactivity

Sequence	polyreactivity (PSR sort gate)
QVQLVESGGGLVQAGGSLRLSCAASGRTFDHYAMGWYIQAPGKERELVAAISNSDGSTNYADSVKGRFTISRDNAMNTVYLQMNSLKPEDTAVYYCNKLYRGGWYDYWGLGTQVTVSS	low polyreactivity
QVHLVESGGGLVQAGGSHRLSCAASGFTIHRYAMGWYRQAPGKERELVAGITRRSGSTFYADSVKGRFTISRDNAKNTVFLQMNSLKPEDTAVYYCAATVPGLHWIYDYWGQGTQVTVSS	high polyreactivity
QVQLVESGGGLVQAGGSLRLSCAASGSIFWANAMGWYRQAPGKERELVASISSGGSTNYADSVKGRFTISRDNAKNTVYLQMNSLKPEDTAVYYCAADYSHSYIGYDYWGQGTQVTVSS	low polyreactivity
QVQLVESGGGLVQAGGSLRLSSAASGSTFYYNTMGWSRQAPGKERELVAAISSSGGTTYYADSVKGRFTISRDNAKNTVYLQMNSLKPEDTAVYYCNVATIWYSYARGYGYWGQGTQVTVSS	high polyreactivity
QVQLVESGGGLVQAGGSLRLTCAASGRTFRPYDMGWYRQAPGKQRELVATITTNGGSTYYADSVKGRFTISRDNAMNTVYLQMTSLKPEDTAGYYCATDNSWPTYHYDGGYYWGQGTQVTVSS	low polyreactivity
QVQLVESGGGLVQAGGSLRLSCAASGFNYRYYAMGWYRQAPGKERELVAAIDYSGGSTNYADSVKGRFTISRDNAKNTVYLQMNSLNPEDTAVYYCNAEYTWHRGYDYWGQGTQVTVSS	low polyreactivity
QVQLVESGGCLVQAGGSLRLSSAASGSIFHAYAMGWYRQSPGKESELVAAITIDGSTNYADSVKGRFTISRDNAKNTVYLQMNSLKPEDTAVYYCNKDGAYDAYSYDYWGQGTQVTVSS	low polyreactivity
QVQLVESGGGLVQAGGSLRLSCAASGSIFAGYAMGWYRQAPGKERELVAAISKSAGSTYYADSVKGRFTISRDNAKNTVYLQMNSLKAEDTAVYYCAARTFNTYPSYYYWGQGTQVTVSS	high polyreactivity
QVQLVESCGGLVQAGGSLRLSCAASGSTFRFNTMGWYRQPPGKERELVAAITRGGSTNYADSVKGRFTISRDNAKNTVYLQMNSLKPEDTAVYFCAAGYCWTFDYDYWGQGTQVTVSS	low polyreactivity
QVQLVESGGGLVQAGGSLRLSCAASGSTFFYYAMGWYRQAPGKERELVAAISQSSASTYYADSVKGRFTISRDNAKNTIYLQMNSLKPEDTAVYYCAADYWSVPYIYEYWGQGTQVTVSS	high polyreactivity
QVHLVESGGGLVQAGGSLRLSCAASGFIFQYYAMGWYRQAPGKEREMVAAINRGGGTHYADSVQGRFTISRDNAKNTVYLQMNSLKPEVTAVYYCNKVYYWPGSRPSRYEYWGQGTQVTVSS	low polyreactivity
QVQLVESGGGLVQAGGSLRLSCAASGSIFEPNAMGWYRQAPGKVRELVAAITSGGTTYADSVKGRFTISRDNAKNTVYLQMNSLKPEETAVYYCAADYSFVYYYPFDYWGQGTQVTVSS	low polyreactivity
QVQLVESGGGLVQAGGSLRLRCAASGRTFIVYAMGWYRQAPGKERELVARISSGSRTSYADSVKGRFTISRDNAKNTVYLQMNSLKPEDTAVYYCAKSRVIKYEFDYWGQGTEVTVSS	low polyreactivity
QVQLVESGGGLVQAGGSLRLSCAASGFIFVFYAMGWYRQAPGKERELVAAITWSGGGTYYADSVKGRFTISRDNAKNTVYLQMNSLKPEDTAVYYCNAEEPQYYYVLDKLYDYWGQGTQVTVSS	low polyreactivity
QVQLVESGGGLVQAGGSLRLSCAASGRIFGGYAMGWYRQAPGKERELVAVISRGGSITDYADSVKGRFTISRDNAKNTVYLQMNSLKPEDTAVYYCAARICGGSYWGQGTQVTVSS	high polyreactivity
QVQLVASGGGLVQAGGSLRLSCAASGRTFYEYSIGWYRQAPGKERELDAGITSGGSTNYSDTVKGRFTISRDNATNPVFLLMNRLNPEDTAVYYCAAAYWGYEYDYWGQGTQVTLSS	low polyreactivity
QVQLVESGGGLVQAGGSLRLSCAASGFTFGSNVMGWYRQAPGKERELVAAIRGRGGSTYSADSVKGRFTISRDNAKNTVYLQMNSLKPEDTAVYYCNAVQRYQMGYCGQGTQVTVSS	high polyreactivity
QDQLVESGGGLVQAGGSLRLSCSAYGSILKNNAMGLYIQSPGQERELVAAISSDGSTNYADSVKGRFRISRDNAKNTVYLQMNSLKPEDTAVYYCAAHDNGAWVRMDYWGQGTQVTVSS	low polyreactivity
QVPLVESGGGLVQAGGSLRLSCAASGSTFVRYAMGWYRQAPGKERELVAGISRVGNTYYADSVKGRFTISRDNAKNTVYLQMNSLKPEDTAVYYCARSQAVYDGWFAKFGYWGQGTQVTVSS	high polyreactivity
QVQLVESGGGLVQAGGSLRLSCAASGRIFAHNAMGWYRQAPGKERELVAAINSGGSTRYADSVKGRFTISRDNAKNTVYLQMNSLKPEDTAVYYCARGPKGYYFARYGYWGQGTQVTVSS	high polyreactivity
QVQLVESGGGLVQAGGSLRLSCAASGSTSQPYAMGWYRQAPGKERELVASITNGGITYYADSVKGRFTISRDNAKNTVYLQMNSLKPEDTAVYYCNADNVFEGYDRRSARASYRYYYWGQGTQVTVSS	low polyreactivity
